Experimental data reported in US5747453.

Biological target: PTH receptor (rat) (UniProt P25961)
Sequence (P25961 27-591): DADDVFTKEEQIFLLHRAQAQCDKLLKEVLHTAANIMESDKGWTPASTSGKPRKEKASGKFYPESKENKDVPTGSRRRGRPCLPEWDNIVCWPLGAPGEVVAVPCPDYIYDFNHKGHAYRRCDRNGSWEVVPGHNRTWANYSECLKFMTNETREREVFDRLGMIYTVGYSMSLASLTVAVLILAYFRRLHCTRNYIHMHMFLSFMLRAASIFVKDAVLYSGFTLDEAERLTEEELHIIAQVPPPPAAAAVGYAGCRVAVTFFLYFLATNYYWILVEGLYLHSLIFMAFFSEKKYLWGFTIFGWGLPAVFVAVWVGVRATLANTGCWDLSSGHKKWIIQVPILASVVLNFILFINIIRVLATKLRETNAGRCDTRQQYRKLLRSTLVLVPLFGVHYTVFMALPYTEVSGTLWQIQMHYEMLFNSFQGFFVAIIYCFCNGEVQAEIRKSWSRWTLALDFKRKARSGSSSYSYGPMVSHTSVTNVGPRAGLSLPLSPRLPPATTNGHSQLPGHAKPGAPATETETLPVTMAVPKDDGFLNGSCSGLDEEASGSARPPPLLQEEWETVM

Chain of PTH analog 1 (1-35) (ligand) (peptide): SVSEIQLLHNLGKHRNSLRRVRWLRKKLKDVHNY

Synthetic PTH having the wild-type sequence (ligand)
cAMP concentration (adenylate cyclase stimulation) in UMR106 cells, scintillation proximity assay: 4.4 nM

PTH analog 1 (1-35) (ligand)
cAMP concentration (adenylate cyclase stimulation) in UMR106 cells, scintillation proximity assay: 0.9 nM
